Source: publication PMC11026580
pKd: −log10 of the molar value. Read-outs that look alike come from different tables or passages of the source.

Experiments:
[1] = target: extracellular domain of the human FcαRI (human) (UniProt P24071)
IgA2 (m2) C2Q = assay: SEC; analytical size-exclusion chromatography of affinity-purified IgA2 (m2) from small-scale transient transfections; JC co-expressed (LC:HC:JC 1:1:0.5)
[2] = target: extracellular domain of the human FcαRI (human) (UniProt P24071); remark: listed apart in the source

extracellular domain of the human FcαRI (human), sequence (P24071 22-227): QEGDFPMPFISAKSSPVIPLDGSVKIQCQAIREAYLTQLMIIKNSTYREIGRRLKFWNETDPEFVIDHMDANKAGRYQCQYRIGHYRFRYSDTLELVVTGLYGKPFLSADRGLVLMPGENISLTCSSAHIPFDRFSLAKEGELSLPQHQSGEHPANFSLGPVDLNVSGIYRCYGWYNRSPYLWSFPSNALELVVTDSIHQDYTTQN

Work on IgA2 (m2) C2Q (from UniProt P01877) yielded a pKd [1] of 6.71.

For IgA2 (m2) C2Q (antibody), the stoichiometry N (IgA2 (m2) C2Q) was 2.

IgA2 (m2) N2Q (from UniProt P01877) showed a pKd [2] of 6.52.
